Test results taken from patent publication US20140223606, “COMPOSITIONS AND METHODS COMPRISING SEQUENCES HAVING MEGANUCLEASE ACTIVITY” (PIONEER HI BRED INTERNATIONAL INC, published 2014).
Residue numbers refer to the chain shown, from its start.

Legend:
[1] = target: T1, MHP14+(06) (artificial); experiment: cell_activity; maize; yeast 37 C: 4; details: tags: SV40 NLS
T1 chain: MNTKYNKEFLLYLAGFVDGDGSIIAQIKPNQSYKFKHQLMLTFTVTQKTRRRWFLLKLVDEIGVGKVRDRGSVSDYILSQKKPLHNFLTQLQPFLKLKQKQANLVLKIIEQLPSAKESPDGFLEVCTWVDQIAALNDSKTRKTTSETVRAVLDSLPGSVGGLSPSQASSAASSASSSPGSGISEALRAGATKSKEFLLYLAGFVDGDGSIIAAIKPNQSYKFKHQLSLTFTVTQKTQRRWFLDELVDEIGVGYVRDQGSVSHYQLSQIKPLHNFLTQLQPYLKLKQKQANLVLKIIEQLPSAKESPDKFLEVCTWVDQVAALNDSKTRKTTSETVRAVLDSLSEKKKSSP

[2] = target: T2, MHP14+(14) (artificial); experiment: cell_activity; maize; yeast 37 C: 4; details: tags: SV40 NLS
T2 chain: T1 chain with L56D, K81I, G121K, E244K, G258S, Y281F, K308G, V316A, V319I

[3] = target: T3, MHP14+(08) (artificial); experiment: cell_activity; maize; yeast 37 C: 4; details: tags: SV40 NLS
T3 chain: T1 chain with S22C, R50K, F54I, K81I, G121K, E244K, Y281F, V316A, V319I

[4] = target: T4, MHP14+(12) (artificial); experiment: cell_activity; maize; yeast 37 C: 4; details: tags: SV40 NLS
T4 chain: T1 chain with F16I, R50K, L56D, K81I, N103V, G121K, I132V, D153M, V319I

[5] = target: T5, ZM6.3(G3) (artificial); experiment: cell_activity; yeast 37 C; 28 C: 2; details: tags: NLS, 6xHis
T5 chain: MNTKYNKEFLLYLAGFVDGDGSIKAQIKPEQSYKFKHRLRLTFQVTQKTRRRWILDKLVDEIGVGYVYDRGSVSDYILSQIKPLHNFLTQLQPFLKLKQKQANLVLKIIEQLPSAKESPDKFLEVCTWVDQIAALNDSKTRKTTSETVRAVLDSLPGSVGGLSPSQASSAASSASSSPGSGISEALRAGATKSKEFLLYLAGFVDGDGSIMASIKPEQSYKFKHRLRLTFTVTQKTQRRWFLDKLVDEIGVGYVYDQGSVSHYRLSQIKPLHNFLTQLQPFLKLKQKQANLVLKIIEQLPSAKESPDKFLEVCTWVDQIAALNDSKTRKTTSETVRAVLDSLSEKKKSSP
Description: A 3 mL culture of selective media (MP Biomedical) was inoculated with a single colony of the yeast screening strain and grown at 30° C. overnight. On the following day, a 50 ml YPD culture (MP Biomedical) was started with 2 ml of the overnight culture and grown at 30° C. overnight. On the following day, the cells were harvested by centrifugation at 4000 rpm. The cells were resuspended in 100 ml ice cold water and centrifuged again. The cells were then washed in 1.2 M sorbitol, followed by treatment with 2 ml of 10 mM Tris pH 8.0, 1 mM EDTA, 100 mM Lithium acetate, 10 mM DTT, 0.6M sorbitol for 30 minutes at 30° C. with shaking. The cells were recovered by centrifugation, washed in 40 ml 1.2M sorbitol and finally resuspended in 250 microliters of 1.2M sorbitol. 50 microliter aliquots were transferred to test tubes on ice. Up to 5 microliters of DNA (100-500 nanograms) were added. The suspension was transferred to a 0.2 cm electroporation cuvette, on ice. Electroporation was performed with a pulse charge at 1.5 kV, 200 ohms, 25 microF (pulse time of 5 milliseconds). 1 mL YPD media (MP Biomedical) was added and the cells were allowed to recover at 30° C. for 1-2 hr. The cells were centrifuged, resuspended in 100 uL 1M sorbitol and plated on selective media lacking leucine and containing 2% galactose. The resulting yeast colonies were incubated at various temperatures ranging from 22 to 37 degrees Celsius for 7-10 days. I-CreI and meganucleases derived from it have maximal activity at or above 37 degrees Celsius. Screening was performed at a range of temperatures from 22 to 37 degrees in order to observe increases in activity at lower temperatures which are relevant to certain biological systems (eg. plant cells, plant cell cultures, etc). At that time the red/white sectoring phenotype, indicative of meganuclease activity was observed. Colonies with increased white sectoring over the parental meganuclease (indicating colonies expressing a meganuclease with increased meganuclease activity), also referred to as “hits” and sometimes completely white, were isolated for further analysis.
A total of 15 Zm6.3 variants with increased activity were confirmed in the yeast system (as described in Example 6). Increased activity was observed across a range of temperatures: 28 degrees Celsius, 30 degrees Celsius and 37 degrees Celsius, as shown in Table 15.

B1: MHP14 recognition site (dsDNA)
DNA 1: CAAACAGATTCACGTCAGATTT
DNA 2: AAATCTGACGTGAATCTGTTTG
activity [1]: 7 % target site mutation rate | activity [2]: 39 % target site mutation rate | activity [3]: 25 % target site mutation rate | activity [4]: 47 % target site mutation rate

B2: ZM6.3 recognition site (dsDNA)
DNA 1: CAGGCTCTCGTAAATGCGCCTG
DNA 2: CAGGCGCATTTACGAGAGCCTG
activity [5]: 4 score 0-4
